Test results taken from patent US20140030245.

Biological target: T1, Myc-tagged Chk1 C-terminal fragment C5, O14757
T1 chain: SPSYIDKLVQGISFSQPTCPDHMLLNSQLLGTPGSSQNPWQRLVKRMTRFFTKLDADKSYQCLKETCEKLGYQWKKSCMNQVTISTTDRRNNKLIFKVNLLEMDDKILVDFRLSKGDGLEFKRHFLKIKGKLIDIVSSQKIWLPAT

B1: endogenous Chk1 (protein)
chain: MAVPFVEDWDLVQTLGEGAYGEVQLAVNRVTEEAVAVKIVDMKRAVDCPENIKKEICINKMLNHENVVKFYGHRREGNIQYLFLEYCSGGELFDRIEPDIGMPEPDAQRFFHQLMAGVVYLHGIGITHRDIKPENLLLDERDNLKISDFGLATVFRYNNRERLLNKMCGTLPYVAPELLKRREFHAEPVDVWSCGIVLTAMLAGELPWDQPSDSCQEYSDWKEKKTYLNPWKKIDSAPLALLHKILVENPSARITIPDIKKDRWYNKPLKKGAKRPRVTSGGVSESPSGFSKHIQSNLDFSPVNSASSEENVKYSSSQPEPRTGLSLWDTSPSYIDKLVQGISFSQPTCPDHMLLNSQLLGTPGSSQNPWQRLVKRMTRFFTKLDADKSYQCLKETCEKLGYQWKKSCMNQVTISTTDRRNNKLIFKVNLLEMDDKILVDFRLSKGDGLEFKRHFLKIKGKLIDIVSSQKVWLPAT
phosphorylation of endogenous Chk1 proteins (immunoblot, HeLa): overexpression of the C5 fragment and to a lesser extent, the entire C-terminus, induced strong phosphorylation of endogenous Chk1 proteins
phosphorylation of endogenous Chk1 under normal growth conditions (immunoblot, HEK293T): expression of the C5 fragment, and to a lesser extent, the C6 fragment, but not other small fragments, induced phosphorylation of endogenous Chk1 under normal growth conditions
